Holding throughout (experiment): SPR; Biacore T200; antibody captured on anti-human Fc (CM5 chip); CD30-MBP flowed at 0, 2, 20 nM (T426: 0, 20, 200 nM), contact 90 s, dissociation 300 s; fit to a 1:1 binding mode; rough-level analysis
Details in all cases: both partners purified

One test concerns the target T1, BpT107-427.
T1 construct: T107 Fv, N side; T427 Fv, C side; one Fab of each Fv; knobs-into-holes Fc; source: Expi293 fragments joined by intein-mediated protein trans-splicing, purified (Superdex 200 Increase); copies: + + +

Another test has as its target T2, BpT427-405.
T2 construct: T427 Fv, N side; T405 Fv, C side; one Fab of each Fv; knobs-into-holes Fc; source: Expi293 fragments joined by intein-mediated protein trans-splicing, purified (Superdex 200 Increase); copies: + + +

The target of a further test is T3, BpT104-405.
T3 construct: T104 Fv, N side; T405 Fv, C side; one Fab of each Fv; knobs-into-holes Fc; source: Expi293 fragments joined by intein-mediated protein trans-splicing, purified (Superdex 200 Increase); copies: + + +

A further test deals with T4, BpT427-6.
T4 construct: T427 Fv, N side; T6 Fv, C side; one Fab of each Fv; knobs-into-holes Fc; source: Expi293 fragments joined by intein-mediated protein trans-splicing, purified (Superdex 200 Increase); copies: + + +

In another test the target is T5, BpT405-6.
T5 construct: T405 Fv, N side; T6 Fv, C side; one Fab of each Fv; knobs-into-holes Fc; source: Expi293 fragments joined by intein-mediated protein trans-splicing, purified (Superdex 200 Increase); copies: + + +

The target in a further test is T6, BpT104-25.
T6 construct: T104 Fv, N side; T25 Fv, C side; one Fab of each Fv; knobs-into-holes Fc; source: Expi293 fragments joined by intein-mediated protein trans-splicing, purified (Superdex 200 Increase); copies: + + +

A further test has as its target T7, BpT105-405.
T7 construct: T105 Fv, N side; T405 Fv, C side; one Fab of each Fv; knobs-into-holes Fc; source: Expi293 fragments joined by intein-mediated protein trans-splicing, purified (Superdex 200 Increase); copies: + + +

The target in the next test is T8, BpT10-6.
T8 construct: AC10 Fv, N side; T6 Fv, C side; one Fab of each Fv; knobs-into-holes Fc; source: Expi293 fragments joined by intein-mediated protein trans-splicing, purified (Superdex 200 Increase); copies: + + +

Another test addresses T9, BpT10-405.
T9 construct: AC10 Fv, N side; T405 Fv, C side; one Fab of each Fv; knobs-into-holes Fc; source: Expi293 fragments joined by intein-mediated protein trans-splicing, purified (Superdex 200 Increase); copies: + + +

Another test concerns the target T10, BpT107-6.
T10 construct: T107 Fv, N side; T6 Fv, C side; one Fab of each Fv; knobs-into-holes Fc; source: Expi293 fragments joined by intein-mediated protein trans-splicing, purified (Superdex 200 Increase); copies: + + +

The target in a further test is T11, BpT25-6.
T11 construct: T25 Fv, N side; T6 Fv, C side; one Fab of each Fv; knobs-into-holes Fc; source: Expi293 fragments joined by intein-mediated protein trans-splicing, purified (Superdex 200 Increase); copies: + + +

The target in a further test is T12, BpT104-6.
T12 construct: T104 Fv, N side; T6 Fv, C side; one Fab of each Fv; knobs-into-holes Fc; source: Expi293 fragments joined by intein-mediated protein trans-splicing, purified (Superdex 200 Increase); copies: + + +
T12 sequence (chain, as listed by the source, chain 1 of 4): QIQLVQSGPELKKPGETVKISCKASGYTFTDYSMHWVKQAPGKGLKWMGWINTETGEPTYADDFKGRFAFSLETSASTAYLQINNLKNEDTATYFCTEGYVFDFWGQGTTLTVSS
T12 sequence (chain, as listed by the source, chain 2 of 4): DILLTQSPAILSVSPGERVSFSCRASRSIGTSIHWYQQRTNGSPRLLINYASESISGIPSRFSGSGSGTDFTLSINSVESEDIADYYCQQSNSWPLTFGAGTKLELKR
T12 sequence (chain, as listed by the source, chain 3 of 4): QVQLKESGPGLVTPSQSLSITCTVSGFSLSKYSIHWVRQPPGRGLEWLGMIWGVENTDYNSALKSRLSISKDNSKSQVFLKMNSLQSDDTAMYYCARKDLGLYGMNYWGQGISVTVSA
T12 sequence (chain, as listed by the source, chain 4 of 4): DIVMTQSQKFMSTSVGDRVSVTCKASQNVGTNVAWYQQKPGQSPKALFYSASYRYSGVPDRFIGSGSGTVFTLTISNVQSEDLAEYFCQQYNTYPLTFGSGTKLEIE

T6 sequence (chain, as listed by the source, chain 3 of 4): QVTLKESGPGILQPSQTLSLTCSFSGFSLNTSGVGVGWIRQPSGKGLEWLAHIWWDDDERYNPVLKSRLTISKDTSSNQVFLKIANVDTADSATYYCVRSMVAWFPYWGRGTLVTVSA
T6 sequence (chain, as listed by the source, chain 4 of 4): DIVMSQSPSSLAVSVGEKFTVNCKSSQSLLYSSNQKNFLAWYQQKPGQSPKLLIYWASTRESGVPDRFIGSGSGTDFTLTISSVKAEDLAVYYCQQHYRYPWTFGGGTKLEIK
T4 sequence (chain, as listed by the source, chain 1 of 4): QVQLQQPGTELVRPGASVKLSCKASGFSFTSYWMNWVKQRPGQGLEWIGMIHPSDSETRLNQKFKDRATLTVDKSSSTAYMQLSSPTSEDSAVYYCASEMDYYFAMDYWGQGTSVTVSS
T4 sequence (chain, as listed by the source, chain 2 of 4): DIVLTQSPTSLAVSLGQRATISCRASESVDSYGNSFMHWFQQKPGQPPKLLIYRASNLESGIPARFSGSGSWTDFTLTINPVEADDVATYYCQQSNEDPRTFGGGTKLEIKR
T8 sequence (chain, as listed by the source, chain 1 of 4): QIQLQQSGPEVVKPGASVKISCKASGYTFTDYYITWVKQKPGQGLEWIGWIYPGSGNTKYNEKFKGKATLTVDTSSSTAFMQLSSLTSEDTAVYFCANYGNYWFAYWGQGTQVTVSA
T8 sequence (chain, as listed by the source, chain 2 of 4): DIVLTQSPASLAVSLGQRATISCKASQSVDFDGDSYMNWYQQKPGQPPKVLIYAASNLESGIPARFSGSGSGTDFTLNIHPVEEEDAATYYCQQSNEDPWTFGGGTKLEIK
T1 sequence (chain, as listed by the source, chain 1 of 4): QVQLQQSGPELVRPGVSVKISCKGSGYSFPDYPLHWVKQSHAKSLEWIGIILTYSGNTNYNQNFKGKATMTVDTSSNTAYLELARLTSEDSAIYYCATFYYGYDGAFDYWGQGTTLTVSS
T1 sequence (chain, as listed by the source, chain 2 of 4): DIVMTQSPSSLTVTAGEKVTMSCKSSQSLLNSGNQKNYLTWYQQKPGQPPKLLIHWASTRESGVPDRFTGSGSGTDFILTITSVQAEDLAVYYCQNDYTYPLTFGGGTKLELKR

B1: Maltose-binding protein-fused CD30 (domain or fragment)
chain: FPQDRPFEDTCHGNPSHYYDKAVRRCCYRCPMGLFPTQQCPQRPTDCRKQCEPDYYLDEADRCTACVTCSRDDLVEKTPCAWNSSRVCECRPGMFCSTSAVNSCARCFFHSVCPAGMIVKFPGTAQKNTVCEPASPGVSPACASPENCKEPSSGTIPQAKPTPVSPATSSASTMPVRGGTRLAQEAASKLTRAPDSPSSVGRPSSDPGLSPTQPCPEGSGDCRKQCEPDYYLDEAGRCTACVSCSRDDLVEKTPCAWNSSRTCECRPGMICATSATNSCARCVPYPICAAETVTKPQDMAEKDTTFEAPPLGTQPDCN
modifications: Construct 1-336 includes signal peptide 1-18, taken as cleaved on secretion; C-terminal MBP carrier and His tag left out; disulfide-bonded, likely glycosylated (Expi293)
For B1, the dissociation constant Kd worked out at 0.6 nM with BpT107-427; 0.31 nM in the test with BpT427-405; 48 nM with BpT104-405; 0.26 nM in the test with BpT427-6; 0.44 nM with BpT405-6; 0.5 nM in the test with BpT104-25. The Kd was found to be 0.67 nM in the test with BpT105-405; 0.27 nM in the test with BpT10-6; 0.63 nM in the test with BpT10-405; 0.37 nM in the test with BpT107-6; 0.46 nM with BpT25-6; 0.59 nM in the test with BpT104-6.
